± gives the uncertainty stated by the source.
Experiment: amyloid nucleation score (Sup35N fusion, yeast selection) (log enrichment); library NNK3; higher = more nucleation; inactive = no reads after selection
Procedure, shortened: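 Libraries of peptides of 20 random codons fused to Sup35N were expressed in psi-negative yeast and induced 24 hours with 100 μM copper sulfate. Selection was 7 days at 30°C on medium lacking adenine and uracil, and plasmid inserts were Illumina-sequenced before and after selection. Nucleation score is the DiMSum log enrichment of output over input reads, centred on the mode score of non-aggregating sequences, and sequences with under 100 input reads were left out.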
With AMQAAPVCRRYAVVTTHFDH the amyloid nucleation score was “inactive”.
In the case of IAYKFWGSNVLDR, the amyloid nucleation score is reported as “inactive”.
In the case of YAFHKTDSCCVMCVRGPAPT, the amyloid nucleation score is reported as “inactive”.
In the case of TVYSTVSRDMNDKHFAGSTG, the amyloid nucleation score is reported as “inactive”.
In the case of TVHKVSGKDQGWMYGHMLFC, the amyloid nucleation score is reported as “inactive”.
Work on GHMWFFVFY yielded an amyloid nucleation score of 2.52 ± 0.061.
In the case of VPGFGVLACCGQVLLFSHLF, the amyloid nucleation score is reported as “inactive”.
For CPVLGCMSTGEYHCFLTQTY, the amyloid nucleation score was “inactive”.
In the case of TEVFVHFTCEIGYIFLILFQ, the amyloid nucleation score is reported as “inactive”.
Substance TCSLFFSYPYIGRQHGCGRY has an amyloid nucleation score of 0.444 ± 0.46.
With KWNCHLVLPLWIPGLVMMGR the amyloid nucleation score was “inactive”.
With HWVLQYRCSARKRSHLRYSM the amyloid nucleation score was “inactive”.
VLRFFM gave an amyloid nucleation score of 0.399 ± 0.23.
For MFCSIIKSQTVAFLVGSSFG, the amyloid nucleation score was 0.145 ± 0.26.
With YVELSTYCSRWLVLIVDYLE the amyloid nucleation score was “inactive”.
For PRNFFLRVMHY, the amyloid nucleation score was “inactive”.
In the case of GVWVA, the amyloid nucleation score is reported as -0.931 ± 1.9.
For FAYQFRLVDTSLSDF, the amyloid nucleation score was “inactive”.
For GTEVILSLVSESTGKRAARL, the amyloid nucleation score was “inactive”.
With RDMFIYKTCMKVCVQLPYII the amyloid nucleation score was “inactive”.
For LPLMDKLR, the amyloid nucleation score was “inactive”.
With TMCKRLVVTYQLAYWRVSV the amyloid nucleation score was “inactive”.
In the case of ELIDKLVT, the amyloid nucleation score is reported as “inactive”.
With GVFFFNYLNS the amyloid nucleation score was 0.63 ± 0.14.
For SHIDAIAQGNTVSSCGYV, the amyloid nucleation score was “inactive”.
For VCIWSIETNVCSGCVKIKGF, the amyloid nucleation score was “inactive”.
With MYGEMYCRFCVVVVGWLQFV the amyloid nucleation score was “inactive”.
With KICRIYAMGVLLSDTVSTMS the amyloid nucleation score was “inactive”.
For NHQIVRDDRCYKLLIQAVRM, the amyloid nucleation score was “inactive”.
For GHLSIHREGFNLVSHLCANF, the amyloid nucleation score was “inactive”.
For RLICLMGSLW, the amyloid nucleation score was 1.34 ± 0.081.
Work on PPCMYTMYCEYNVLQSSSKY yielded an amyloid nucleation score of 1.64 ± 0.082.
For NTNVVSDYIHHAF, the amyloid nucleation score was “inactive”.
With FLVGPPNL the amyloid nucleation score was “inactive”.
In the case of RTSLNGTLGVLSRYGWNISE, the amyloid nucleation score is reported as “inactive”.
With LRMVRSYVLSNGCL the amyloid nucleation score was “inactive”.
For RISVAGLCASEAVAKCLRRG, the amyloid nucleation score was “inactive”.
In the case of LPSGFLGPLIPVESQIPRTQ, the amyloid nucleation score is reported as “inactive”.
For LILIRAVSG, the amyloid nucleation score was “inactive”.
MNLYVSSLIGISARMWDWFS showed an amyloid nucleation score of 0.289 ± 0.25.
With FYEHLVRSNFLSLRRMVRTV the amyloid nucleation score was “inactive”.
With IGSPSHLYKYHCVGFRVSSQ the amyloid nucleation score was “inactive”.
For ECGFKKR, the amyloid nucleation score was -0.383 ± 1.3.
In the case of GFSCVNFFAWIL, the amyloid nucleation score is reported as 1.81 ± 0.082.
In the case of HWSRFQYGLVFRNFIVQNLD, the amyloid nucleation score is reported as “inactive”.
WTFNLFFNFRTFRLCCRKLV gave an amyloid nucleation score of 0.938 ± 0.096.
Substance PWSLWRTVKSPRKGGEQPRS has an amyloid nucleation score of -0.317 ± 1.1.
For KCWPIVCNLWNREWQCSLIR, the amyloid nucleation score was “inactive”.
With SGWIYMERIAS the amyloid nucleation score was “inactive”.
In the case of FAHEVLYSANT, the amyloid nucleation score is reported as “inactive”.
VIIINRVIENRWSDRHEITN gave an amyloid nucleation score of 2.57 ± 0.053.
For FITTCRILWVRCTGIVNDFL, the amyloid nucleation score was “inactive”.
With GLFSLIIR the amyloid nucleation score was “inactive”.
With RSGFRLLIWYRKQMICLCNL the amyloid nucleation score was “inactive”.
For LWDDMVIMFGPVICYGMASG, the amyloid nucleation score was “inactive”.
In the case of YSSSFIWMAYESIYFFLIFI, the amyloid nucleation score is reported as “inactive”.
HYKLSSMVSVYLLTIL showed an amyloid nucleation score of -0.307 ± 0.88.
With LFYGNW the amyloid nucleation score was “inactive”.
With FGQYWKRCTTCLCGWPTGIG the amyloid nucleation score was “inactive”.
In the case of SNRYKVCWCCPFLFRGVTRL, the amyloid nucleation score is reported as 1.94 ± 0.093.
In the case of YIVST, the amyloid nucleation score is reported as “inactive”.
Work on NWNYLISMRGFTEYGESFWW yielded an amyloid nucleation score of -0.18 ± 0.61.
For VSGLDWFM, the amyloid nucleation score was “inactive”.
In the case of SVDYQGYNGKKYLFTISLRC, the amyloid nucleation score is reported as “inactive”.
For TERYATNSLCSGIKMALRQV, the amyloid nucleation score was “inactive”.
In the case of AGIRYTNYFSSMGSIGGDGV, the amyloid nucleation score is reported as “inactive”.
In the case of YVMHWSVAEVLRSLCVNHVR, the amyloid nucleation score is reported as “inactive”.
For ITCLNLINGGYHP, the amyloid nucleation score was -0.066 ± 0.3.
With YNYLV the amyloid nucleation score was “inactive”.
RQGRYEHQRGPFSLVSQVG gave an amyloid nucleation score of -0.083 ± 1.1.
For AYIKWNVDCRLKTHNDGYFL, the amyloid nucleation score was “inactive”.
In the case of NDGTSILSTQSLSVRWMVRV, the amyloid nucleation score is reported as “inactive”.
With YRILRL the amyloid nucleation score was “inactive”.
In the case of RYMFWQWRGEL, the amyloid nucleation score is reported as 0.958 ± 0.17.
In the case of TVVDLLVRYSAIGSCVFSVT, the amyloid nucleation score is reported as “inactive”.
In the case of NGHKEESILCGNGYWKHASE, the amyloid nucleation score is reported as “inactive”.
For GYLIIVIRLSAIDRHQ, the amyloid nucleation score was “inactive”.
With GGRYTVAAEVKVTHAYATG the amyloid nucleation score was “inactive”.
For DSSKVGFSALVNVSTIA, the amyloid nucleation score was “inactive”.
With DWNISLNLQDIGRRSLPIFA the amyloid nucleation score was “inactive”.
In the case of DPVIYRCSLVLLYSERSLPY, the amyloid nucleation score is reported as “inactive”.
With HPVGACCLQLRFGLYCICVA the amyloid nucleation score was 0.023 ± 0.26.
For SFERGMSENLFIVGPGEFVG, the amyloid nucleation score was “inactive”.
For IYSDHAL, the amyloid nucleation score was “inactive”.
For LKVMWLWSAKINYMSIVENL, the amyloid nucleation score was “inactive”.
In the case of YFFKTQISSDGTLSTYECME, the amyloid nucleation score is reported as “inactive”.
With LIVYFRPYGNALRRFVRSYV the amyloid nucleation score was “inactive”.
In the case of YVEKVYYCSVRLRYAFLDFD, the amyloid nucleation score is reported as “inactive”.
For FANFSILS, the amyloid nucleation score was “inactive”.
In the case of PYHGSSMLKIRVRGD, the amyloid nucleation score is reported as “inactive”.
With DHCRNKQCVPTWDAYLEQ the amyloid nucleation score was -0.339 ± 0.52.
In the case of QGNSRRSLINLHSLNKNILH, the amyloid nucleation score is reported as “inactive”.
Work on EDFPRALVVRSYQWIYIQNV yielded an amyloid nucleation score of 1.24 ± 0.12.
With CISTVIEKMLVIYEKNRFQH the amyloid nucleation score was 0.529 ± 0.46.
With ARFLYAVVLRWFIMEYRAGT the amyloid nucleation score was “inactive”.
Substance LPHPALKDFRISVRQLIWVR has an amyloid nucleation score of 1.04 ± 0.17.
In the case of TCMSVNVFRGYIIAW, the amyloid nucleation score is reported as “inactive”.
LLKVSGYWLMLRGLTRKFMG showed an amyloid nucleation score of -0.047 ± 1.1.
For THCFNYILYSCSRAQSSCKY, the amyloid nucleation score was 2.29 ± 0.059.
With IERLTCIYRSFESHLAGFVG the amyloid nucleation score was “inactive”.
In the case of TVMLWAWEGRWYVRFVSPDR, the amyloid nucleation score is reported as “inactive”.
For RRCPYIRESIYKFSLAKCSF, the amyloid nucleation score was 0.014 ± 0.31.
In the case of DCGSSCKSYPGKVVDNEMDE, the amyloid nucleation score is reported as “inactive”.
In the case of FFVIRLNPTSLNCVFSWYLL, the amyloid nucleation score is reported as “inactive”.
For YGIYWSETFRNSLCKIVNIL, the amyloid nucleation score was 0.66 ± 0.24.
In the case of MIDRRMSFRQGDHKDCPTAH, the amyloid nucleation score is reported as “inactive”.
In the case of MPKAGVSTVSLSHRKVLTLP, the amyloid nucleation score is reported as 0.174 ± 1.
With DTDFIFVNIA the amyloid nucleation score was “inactive”.
In the case of MYYAN, the amyloid nucleation score is reported as “inactive”.
In the case of EIRTRPKRSVVGSRVSMGVS, the amyloid nucleation score is reported as “inactive”.
In the case of CAVYFLR, the amyloid nucleation score is reported as “inactive”.
For VVWDGMQIGSWPQ, the amyloid nucleation score was “inactive”.
LKWNTTSVNVVYLSFIIGRQ gave an amyloid nucleation score of 2.15 ± 0.086.
In the case of TLTLAFARGDAYPSIARLV, the amyloid nucleation score is reported as “inactive”.
For NFLSALIYILMAYDRDFVYR, the amyloid nucleation score was “inactive”.
For VPKFVMDMIL, the amyloid nucleation score was “inactive”.
With FSLLPKCLSLSGDRNGFKMC the amyloid nucleation score was “inactive”.
LVFMQRNIENISCCVTLYYQ gave an amyloid nucleation score of 2.51 ± 0.071.

— the supplement of paper PMC12042874
